Test results published in the supplement of paper PMC10567573.
± gives the standard deviation.

Assay: protein stability index of a GFP-peptide fusion (GPS, HEK-293T) (PSI 1-6); higher = more stable
[1] = treatment: DMSO, c terminus: a fixed tail appended
[2] = treatment: MLN4924 1 uM, 8 h, c terminus: a fixed tail appended
[3] = treatment: DMSO, c terminus: native
[4] = treatment: MLN4924 1 uM, 8 h, c terminus: native
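Also: 24-mer peptide tiles fused after GFP, lentivirally expressed, FACS-sorted into six equal bins by GFP/DsRed ratio, decoded by Illumina sequencing, PSI is the read-weighted mean bin number.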

| Sequence | protein stability index [1] | protein stability index [2] | protein stability index [3] | protein stability index [4] |
| --- | --- | --- | --- | --- |
| YYPSGDAFASGSDDATCRLYDLRA [GNB5] | 2.94 ± 0.33 | 3.38 ± 0.34 |  |  |
| ATDGARPQALPEPMQESKAEGNNQ [CHGA] | 5.67 ± 0.18 | 5.76 ± 0.11 |  |  |
| NVEHYQELKKMVQQSDLGQYVTFL [ALG2] | 2.27 ± 0.12 | 2.43 ± 0.27 |  |  |
| CADVPLLTPSSKEMMSQALKATFS [ETS1] | 2.79 ± 0.2 | 2.66 ± 0.3 |  |  |
| DPEDFEDAWKRPDALPGQSKRLAV [TLE6] | 5.08 ± 0.18 | 4.83 ± 0.29 |  |  |
| IIMWDIGGRKGRTLLLQGHHDKVQ [WDFY1] | 2.08 ± 0.55 | 2.2 ± 0.12 |  |  |
| NLKQLRKRGSIPTSLTALSLASAS [PPFIA4] | 3 ± 0.15 | 3.09 ± 0.24 |  |  |
| EQLSVLASCLQELFKAHFRGEVLP [INTS3] | 2.52 ± 0.42 | 2.5 ± 1.1 |  |  |
| AAGQRSRPSTYYELLGVHPGASTE [DNAJC4] | 3.58 ± 0.32 | 3.71 ± 0.23 |  |  |
| ATLFFNPQESAILQLFHQDGTFSP [CLCN6] | 2.25 ± 0.42 | 2.29 ± 0.074 |  |  |
| AYAHPQQKVAVYRALQAALAESGG [TRADD] | 2.43 ± 0.51 | 2.65 ± 0.34 |  |  |
| QICTVKDIKAEPQPLSPASSSYSV [ATF6] | 4.16 ± 0.26 | 3.98 ± 0.47 |  |  |
| LQDGNLRAPHKESTLPRSGSSGGQ [CHCHD6] | 5.03 ± 0.12 | 4.95 ± 0.31 |  |  |
| AACIAYIRLTQYIDGQGRPRTSQS [CAMK2B] | 2.24 ± 0.54 | 2.48 ± 0.23 |  |  |
| SYDVALHRTRLQDLRVLVSNASED [SCARA5] | 3.77 ± 0.18 | 3.93 ± 0.27 |  |  |
| KNLFRLEMDMVVFRPEMKKHSWCL [N4BP2L1] | 2.48 ± 0.48 | 2.4 ± 0.45 |  |  |
| EPGGPGWLPESDCETVTCCLFSER [SMAD6] | 3.96 ± 0.35 | 4.16 ± 0.42 |  |  |
| SGVDECARQEGLTFFGTELAPVRQ [PBXIP1] | 4.13 ± 0.4 | 4.08 ± 0.35 |  |  |
| QRLVEALEENELTSLAEDLLGLTD [TRADD] | 4.28 ± 0.14 | 4.28 ± 0.17 |  |  |
| SFMTWLRSYIKLFQAPCQRCGKFL [MED27] | 2.6 ± 0.31 | 2.48 ± 0.18 |  |  |
| LKEGVRLDRVRGGRQKYKRRPEVD [ESRRA] | 4.19 ± 0.29 | 4.43 ± 0.19 |  |  |
| FAFSNGYLASLCMCFGPKKVKPAE [SLC29A1] | 2 ± 0.36 | 2.34 ± 0.21 |  |  |
| KPYKCQQCDKRFRWSSDLNKHLTT [ZNF75A] | 2.18 ± 0.14 | 2.37 ± 0.17 |  |  |

| Sequence | protein stability index [1] | protein stability index [2] | protein stability index [3] | protein stability index [4] |
| --- | --- | --- | --- | --- |
| WTDSEVDSSCSGQPIHLWQFLKEL [SPDEF] | 2.93 ± 0.24 | 3.1 ± 0.39 |  |  |
| QSFGVASASSIKQILLEWCRSKTL [SMTNL2] | 2.41 ± 0.27 | 2.15 ± 0.39 |  |  |
| ERSMSENAVRQNGQLVRNDSLWHR [MFF] | 3.84 ± 0.42 | 3.69 ± 0.4 |  |  |
| LVADLLYWKDTRTSGVVFTGLMVS [RTN2] | 3.17 ± 0.46 | 3.03 ± 0.4 |  |  |
| VLKYFSHYMEENLMDGGDLPSVTD [PLK2] | 2.75 ± 0.52 | 2.67 ± 0.64 |  |  |
| IANCKLFRLQLQQGLFRIRVHSP [GAN] |  |  | 3.45 ± 0.51 | 2.6 ± 0.38 |
| IIYMGSFMLMLLVLGIQVKCFHEI [CDS1] | 3.57 ± 0.85 | 3.27 ± 0.34 |  |  |
| ARKQDMNTKRAIHTLAVMNDRLYA [KLHL14] | 2.55 ± 0.24 | 2.93 ± 0.36 |  |  |
| SDGRTFLSRCEFQRAKCKDPQLEI [SMOC2] | 2.95 ± 0.42 | 2.93 ± 0.33 |  |  |
| LCVNYFFYGETVADYFATFVQREE [CDS1] | 3.4 ± 0.68 | 2.61 ± 0.99 |  |  |
| KKVHKGTVPKNDADDESETPEELE [GLT8D2] | 5.49 ± 0.27 | 5.65 ± 0.093 |  |  |
| SLPLQDELAFAEDLVLDEEGARAA [ESRRA] | 3.52 ± 0.68 | 4.31 ± 0.58 |  |  |
| CGKSFTQSSGLIRHQRIHTGERPY [ZSCAN9] | 2.14 ± 0.034 | 2.25 ± 0.21 |  |  |
| GYGIYYFIYSTWKGRTIYLEDIYV [SAT2] | 2.9 ± 0.16 | 2.78 ± 0.43 |  |  |
| SGEFGSVFKCVKRLDGCIYAIKRS [WEE1] | 2.31 ± 0.58 | 2.65 ± 0.12 |  |  |
| QYPNPLPVLSGAELEKAHLALIDY [VPS39] | 3.55 ± 0.24 | 3.58 ± 0.31 |  |  |
| TSPSPERSLLLKYARTPTLDPDTM [TRIM14] | 3.89 ± 0.66 | 4.29 ± 0.32 |  |  |
| LRPTLLLTSLHHFMHSRNLYILGN [PNLIPRP1] | 3.08 ± 0.31 | 3.13 ± 0.81 |  |  |
| QYLMATFVHVYITSFIRGPNPSKV [CDS1] | 3.12 ± 0.17 | 3.2 ± 0.34 |  |  |
| RDVAAWGRARATGGDLEEQQHAEG [DNAAF3] | 5.43 ± 0.24 | 5.3 ± 0.086 |  |  |
| RLVGKTPIETLIRDMLLSGSSFNW [NR2F2] | 3.25 ± 0.84 | 1.87 ± 0.54 |  |  |
| LRLSCMERKKVQIRSMDPSALASD [DCAF4] | 2.99 ± 0.31 | 3.48 ± 0.3 |  |  |
| SLIEDSQALHKRPKLDSEYYCFG [LURAP1L] |  |  | 2.57 ± 0.4 | 3.11 ± 0.45 |

| Sequence | protein stability index [1] | protein stability index [2] | protein stability index [3] | protein stability index [4] |
| --- | --- | --- | --- | --- |
| GKTAASWCLHVNNWLQVSFTAKHA [FSD1] | 3.23 ± 0.46 | 3.09 ± 0.76 |  |  |
| PSAELVQTRMAVSLTAAETLALQG [ZNF232] | 3.45 ± 0.35 | 3.23 ± 0.23 |  |  |
| YQKAAEEVEAKFKRYESHPVCADL [CHCHD3] | 4.26 ± 0.14 | 4.25 ± 0.28 |  |  |
| IVAVIDSAQLQELVCHVMMGNLVM [INTS3] | 3.25 ± 0.72 | 3.05 ± 0.55 |  |  |
| TGITLLRVKFKSQQHRQGRSHHLE [PTGFR] | 2.24 ± 0.29 | 2.44 ± 0.34 |  |  |
| PHHHSFYDFIVTKARGKSGPLFNF [FAM50A] | 2.29 ± 0.29 | 2.22 ± 0.16 |  |  |
| ENAELESRIQEWYEFQIPYICPDY [KRT36] | 2.77 ± 0.46 | 2.9 ± 0.44 |  |  |
| TEGGNDDSDFRELHTAREFSEEDE [RTN2] | 5.42 ± 0.36 | 5.13 ± 0.71 |  |  |
| AVLGGFLYAVGGQDGVSCLNIVER [KLHL20] | 2.16 ± 0.45 | 2.55 ± 0.47 |  |  |
| DPVVNGERSGCALTDAVAPGNKGR [TCF25] | 5.21 ± 0.21 | 5.32 ± 0.21 |  |  |
| VENGDFNWIVPGKFLAFSGPHPKS [CDC14A] | 2.76 ± 0.41 | 2.92 ± 0.43 |  |  |
| LVPALRLPGRKLVSSAVSPSIIPQ [INTS4] | 2.48 ± 0.31 | 2.46 ± 0.26 |  |  |
| CSSPGVQACSLPASCCIDPREDGA [TSPAN10] | 4.687 ± 0.023 | 4.6 ± 0.1 |  |  |
| FNNVVEQNFKNRESYPEDTVFYIP [DLC1] | 3.01 ± 0.24 | 3.16 ± 0.2 |  |  |
| DLSMKGGASTTSTTPSALSGEPPT [NOL4L] | 5.16 ± 0.32 | 5.28 ± 0.28 |  |  |
| PRMNEVYTRLGEMNNAVRNLQELL [CEP70] | 3.78 ± 0.18 | 3.86 ± 0.23 |  |  |
| ILIIISVIVQIKQPRKKYVQRKSD [NETO1] | 2.86 ± 0.64 | 2.52 ± 0.36 |  |  |
| NHAPLREQGAIPRLVQLLVRAHQD [CTNNB1] | 2.91 ± 0.23 | 2.91 ± 0.19 |  |  |
| SAQYSQQLQAARNEYLLNLVATNA [FCHSD1] | 2.71 ± 0.11 | 2.77 ± 0.18 |  |  |
| ARGLDDAAARGGQCPGLGPAPTPT [ZBED3] | 4.65 ± 0.14 | 4.7 ± 0.25 |  |  |
| VASAPLQPPVPSLSEVKPPPPPPP [TRADD] | 5.02 ± 0.15 | 4.71 ± 0.34 |  |  |
| FRAGMKKEAVQNERDRISTRRSSY [HNF4A] | 4.2 ± 0.21 | 4.17 ± 0.22 |  |  |
| TIMQAVSQIRLNREHKETCEMDWS [TEKT4] | 2.3 ± 0.27 | 2.44 ± 0.21 |  |  |

| Sequence | protein stability index [1] | protein stability index [2] | protein stability index [3] | protein stability index [4] |
| --- | --- | --- | --- | --- |
| ALREVYAHAVLGQHSHVVRYFSAW [WEE1] | 2.36 ± 0.34 | 2.03 ± 0.3 |  |  |
| ALGAMWKLHKSQLSQALNGLSDRA [TRIM9] | 2.21 ± 0.29 | 2.34 ± 0.35 |  |  |
| MPCTWVMACAYAPSGCAIACGGLD [GNB5] | 2.77 ± 0.53 | 2.88 ± 0.4 |  |  |
| DRGDYYLEGYRDNAYKDLAWKHGN [PCMTD1] | 3.18 ± 0.2 | 3.29 ± 0.19 |  |  |
| LLLPGIYTVSATAPGYDPETVTVT [CPN1] | 2.16 ± 0.22 | 2.17 ± 0.31 |  |  |
| QPAGNRRGQARRLAPNFRWAIPNR [BEX3] | 3.89 ± 0.14 | 3.75 ± 0.32 |  |  |
| GSKYYNVEAMYCYLRCIQSEVSFE [SMG5] | 3.05 ± 0.94 | 2.1 ± 0.68 |  |  |
| RRLKYFFMSPCDKFRAKGRKPCKL [MCOLN1] | 2.38 ± 0.38 | 2.71 ± 0.16 |  |  |
| ESGLGHFSLRVHTGCHKKLGPEAR | 3.24 ± 0.46 | 3.32 ± 0.24 |  |  |
| GYRQQKAYIATQGPLAETTEDFWR [PTPRD] | 3.28 ± 0.22 | 3.36 ± 0.42 |  |  |
| EKRSRGQVLFDKVCEHLNLLEKDY [EPB41L3] | 2.87 ± 0.46 | 3.01 ± 0.62 |  |  |
| QVATSPDFDGKLKDIAGEFKEQLQ [ATL3] | 4.34 ± 0.35 | 4.32 ± 0.38 |  |  |
| LLEATGGAAGRSHHLDEDEERERI [KCTD10] | 5.25 ± 0.25 | 5.41 ± 0.35 |  |  |
| YKPVVLLQGLSLIVTWFMLLYAQG [SLC19A2] | 2.94 ± 0.42 | 3.02 ± 0.29 |  |  |
| LAIDAIHQLGFIHRDIKPDNLLLD [STK38L] | 2.23 ± 0.35 | 2.04 ± 0.31 |  |  |
| LCNLGKERFLELAPDFVGDILWEH [ETS2] | 2.46 ± 0.26 | 2.28 ± 0.61 |  |  |
| TEMELLEVSQHIKMRMGGRVDFEE [CABP4] | 4.11 ± 0.25 | 4.08 ± 0.099 |  |  |
| GGGGGGLPISTVREVALLRRLEAF [CDK4] | 3.19 ± 0.3 | 3.23 ± 0.34 |  |  |
| QGGEYLPKPEPPQLVLAYDYSREV [FEM1A] | 3.93 ± 0.23 | 4.12 ± 0.28 |  |  |
| FDRKKKSISLMYGGSKRKSSFFSS [SLA] | 2.53 ± 0.22 | 2.68 ± 0.4 |  |  |
